From patent US20160060320A1 (UNIVERSITY OF COPENHAGEN, published 2016)
Values belong to the binder of their own block, whether it stands above or below them. Ends that are not written are not given here.

Target: NCAM on rat hippocampal neurons (rat, UniProt P13596 20-858)
Assay: cell-based or functional assay

Sequence of NCAM on rat hippocampal neurons (P13596 20-858): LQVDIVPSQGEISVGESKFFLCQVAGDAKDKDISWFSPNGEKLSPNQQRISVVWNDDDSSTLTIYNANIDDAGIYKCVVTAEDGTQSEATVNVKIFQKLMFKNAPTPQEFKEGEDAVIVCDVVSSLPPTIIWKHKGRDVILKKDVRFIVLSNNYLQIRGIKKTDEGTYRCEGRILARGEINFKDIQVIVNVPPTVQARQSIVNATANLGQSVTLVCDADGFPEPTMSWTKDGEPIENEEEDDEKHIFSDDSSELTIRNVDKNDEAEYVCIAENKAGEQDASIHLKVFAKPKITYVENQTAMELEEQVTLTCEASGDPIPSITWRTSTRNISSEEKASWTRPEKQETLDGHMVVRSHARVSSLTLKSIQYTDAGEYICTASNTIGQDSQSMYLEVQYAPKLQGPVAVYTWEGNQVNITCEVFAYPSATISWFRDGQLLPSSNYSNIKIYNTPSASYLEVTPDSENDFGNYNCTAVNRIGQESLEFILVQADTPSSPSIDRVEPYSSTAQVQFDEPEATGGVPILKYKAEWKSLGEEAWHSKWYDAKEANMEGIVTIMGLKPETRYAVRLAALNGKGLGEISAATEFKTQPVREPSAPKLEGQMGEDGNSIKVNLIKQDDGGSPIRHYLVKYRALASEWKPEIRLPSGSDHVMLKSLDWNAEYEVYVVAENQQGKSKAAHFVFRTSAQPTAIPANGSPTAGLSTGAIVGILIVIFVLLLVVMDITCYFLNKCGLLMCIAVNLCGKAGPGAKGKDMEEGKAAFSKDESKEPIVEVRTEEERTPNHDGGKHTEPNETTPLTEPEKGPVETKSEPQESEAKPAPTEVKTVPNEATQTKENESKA

- Neuritogenic effect, 1 µM NPY fragment (% of control): 95.9 % of control
- Neuritogenic effect, 3 µM NPY fragment (% of control): 96.1 % of control
Binder: RHYINLITRQRY-NH2 [NPY25-36]

- Neuritogenic effect, 1 µM NPY fragment (% of control): 96.2 % of control
- Neuritogenic effect, 3 µM NPY fragment (% of control): 104 % of control
Binder: ALRHYINLITRQR [NPY23-35]

- Neuritogenic effect, 1 µM NPY fragment (% of control): 174 % of control
- Neuritogenic effect, 3 µM NPY fragment (% of control): 305 % of control
Binder: PAEDMARYYSALRHYINLITRQR [NPY13-35]

- Neuritogenic effect, 1 µM NPY fragment (% of control): 108 % of control
- Neuritogenic effect, 3 µM NPY fragment (% of control): 186 % of control
Binder: YSALRHYINLITRQRY-NH2 [NPY21-36]

- Neuritogenic effect, 1 µM NPY fragment (% of control): 89.1 % of control
- Neuritogenic effect, 3 µM NPY fragment (% of control): 91.7 % of control
Binder: ALRHYINLITRQRA (ends and bridges not checked) [NPY23-36 ala36]

- Neuritogenic effect, 1 µM NPY fragment (% of control): 87.7 % of control
- Neuritogenic effect, 3 µM NPY fragment (% of control): 97.5 % of control
Binder: YSALRHYINLITRQ [NPY21-34]

- Neuritogenic effect, 1 µM NPY fragment (% of control): 97.8 % of control
- Neuritogenic effect, 3 µM NPY fragment (% of control): 99.1 % of control
Binder: YPSKPDNPGEDAPAEDMARY [NPY1-20]

- Neuritogenic effect, 1 µM NPY fragment (% of control): 100 % of control
- Neuritogenic effect, 3 µM NPY fragment (% of control): 91.8 % of control
Binder: ITRQRY-NH2 (also: Tyr36 (pos 6): amidated per mods, acetylation) [NPY31-36]

- Neuritogenic effect, 1 µM NPY fragment (% of control): 95.4 % of control
- Neuritogenic effect, 3 µM NPY fragment (% of control): 94.1 % of control
Binder: ASALRHYINLITRQR [NPY21-35 ala21]

- Neuritogenic effect, 1 µM NPY fragment (% of control): 96.9 % of control
- Neuritogenic effect, 3 µM NPY fragment (% of control): 103 % of control
Binder: LRHYINLITRQR [NPY24-35]

- Neuritogenic effect, 1 µM NPY fragment (% of control): 104 % of control
- Neuritogenic effect, 3 µM NPY fragment (% of control): 91.4 % of control
Binder: SALRHYINLITRQR [NPY22-35]

- Neuritogenic effect, 1 µM NPY fragment (% of control): 166 % of control
- Neuritogenic effect, 3 µM NPY fragment (% of control): 180 % of control
B1: Neuropeptide Y (NPY; NPY1-36; full-length NPY) (peptide)
peptide: not shown
modifications: Tyr36 amidated

- Neuritogenic effect, 1 µM NPY fragment (% of control): 107 % of control
- Neuritogenic effect, 3 µM NPY fragment (% of control): 99.1 % of control
Binder: YINLITRQRY-NH2 [NPY27-36]

- Neuritogenic effect, 1 µM NPY fragment (% of control): 110 % of control
- Neuritogenic effect, 3 µM NPY fragment (% of control): 285 % of control
Binder: RQRTILNIYHRLASYYRAMDEAPADEGPNDPKS [NPY3-35 reversed sequence]

- Neuritogenic effect, 1 µM NPY fragment (% of control): 154 % of control
- Neuritogenic effect, 3 µM NPY fragment (% of control): 233 % of control
Binder: YSALRHYINLITRQR [NPY21-35]

- Neuritogenic effect, 1 µM NPY fragment (% of control): 107 % of control
- Neuritogenic effect, 3 µM NPY fragment (% of control): 156 % of control
Binder: ALRHYINLITRQRY-NH2 [NPY23-36]
